Experimental data as given in paper PMC8695382 (Nature, 2021).

Key:
Assay in all cases: cryo-EM structure; yeast replisome–SCF^Dia2 complexes assembled in the absence of DNA (off DNA); 3.9 Å
Conditions in all cases: both partners purified
Mcm5 = molecular target: T1, Mcm5 (Saccharomyces cerevisiae, UniProt P29496 1-775)
T1 construct: Mcm5, S. cerevisiae; Subunit of m2; source: purified as part of CMG
T1 sequence: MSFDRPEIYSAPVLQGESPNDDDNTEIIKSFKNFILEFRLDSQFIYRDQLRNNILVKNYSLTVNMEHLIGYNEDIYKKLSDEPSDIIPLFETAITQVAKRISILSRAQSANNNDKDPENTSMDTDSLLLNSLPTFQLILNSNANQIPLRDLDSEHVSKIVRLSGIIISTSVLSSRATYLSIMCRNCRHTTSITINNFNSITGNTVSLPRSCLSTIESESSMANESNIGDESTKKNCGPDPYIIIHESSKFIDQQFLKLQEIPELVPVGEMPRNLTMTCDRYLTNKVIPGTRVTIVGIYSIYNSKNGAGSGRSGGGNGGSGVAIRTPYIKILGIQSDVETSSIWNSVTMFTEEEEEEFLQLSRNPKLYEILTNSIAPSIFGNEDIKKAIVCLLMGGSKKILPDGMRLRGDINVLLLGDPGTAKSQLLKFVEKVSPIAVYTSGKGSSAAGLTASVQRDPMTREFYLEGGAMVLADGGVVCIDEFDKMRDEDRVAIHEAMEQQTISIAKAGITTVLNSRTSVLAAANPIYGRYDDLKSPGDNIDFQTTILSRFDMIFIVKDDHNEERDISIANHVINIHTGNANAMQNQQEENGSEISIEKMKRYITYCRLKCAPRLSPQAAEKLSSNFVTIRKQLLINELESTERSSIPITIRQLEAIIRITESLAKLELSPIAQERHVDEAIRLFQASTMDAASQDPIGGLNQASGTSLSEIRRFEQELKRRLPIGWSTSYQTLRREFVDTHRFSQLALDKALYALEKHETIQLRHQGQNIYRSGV

Mcm3 = molecular target: T2, Mcm3 (Saccharomyces cerevisiae, UniProt P24279 1-971)
T2 construct: Mcm3, S. cerevisiae; Subunit of m2; source: purified as part of CMG
T2 sequence (P24279 whole entry): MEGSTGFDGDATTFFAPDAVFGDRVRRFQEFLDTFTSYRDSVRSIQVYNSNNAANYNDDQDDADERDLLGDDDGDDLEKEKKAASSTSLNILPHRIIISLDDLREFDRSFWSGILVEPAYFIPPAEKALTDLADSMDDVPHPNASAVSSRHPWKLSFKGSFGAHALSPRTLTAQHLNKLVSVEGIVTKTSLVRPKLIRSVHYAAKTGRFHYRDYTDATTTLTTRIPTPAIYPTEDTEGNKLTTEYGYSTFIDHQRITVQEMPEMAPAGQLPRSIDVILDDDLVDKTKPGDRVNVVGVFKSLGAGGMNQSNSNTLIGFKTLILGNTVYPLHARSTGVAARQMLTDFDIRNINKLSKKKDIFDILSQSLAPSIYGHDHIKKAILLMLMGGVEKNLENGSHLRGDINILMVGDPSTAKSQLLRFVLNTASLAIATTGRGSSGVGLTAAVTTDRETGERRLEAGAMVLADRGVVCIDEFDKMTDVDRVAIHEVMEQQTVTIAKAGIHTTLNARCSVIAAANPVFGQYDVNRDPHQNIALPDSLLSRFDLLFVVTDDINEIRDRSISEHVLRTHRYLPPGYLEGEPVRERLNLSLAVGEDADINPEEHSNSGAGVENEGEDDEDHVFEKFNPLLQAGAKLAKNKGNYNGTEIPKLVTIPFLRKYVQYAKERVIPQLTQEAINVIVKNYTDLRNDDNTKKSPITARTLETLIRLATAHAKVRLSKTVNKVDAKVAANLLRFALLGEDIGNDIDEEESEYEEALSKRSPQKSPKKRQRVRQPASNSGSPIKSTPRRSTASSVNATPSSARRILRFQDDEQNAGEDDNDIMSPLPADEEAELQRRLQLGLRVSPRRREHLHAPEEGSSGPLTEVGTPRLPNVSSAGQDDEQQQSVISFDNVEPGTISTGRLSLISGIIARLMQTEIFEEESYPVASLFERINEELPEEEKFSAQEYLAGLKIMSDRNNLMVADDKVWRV

Mcm7 = molecular target: T3, Mcm7 (Saccharomyces cerevisiae, UniProt P38132 1-845)
T3 construct: Mcm7, S. cerevisiae; Subunit of m2; source: purified as part of CMG
T3 sequence: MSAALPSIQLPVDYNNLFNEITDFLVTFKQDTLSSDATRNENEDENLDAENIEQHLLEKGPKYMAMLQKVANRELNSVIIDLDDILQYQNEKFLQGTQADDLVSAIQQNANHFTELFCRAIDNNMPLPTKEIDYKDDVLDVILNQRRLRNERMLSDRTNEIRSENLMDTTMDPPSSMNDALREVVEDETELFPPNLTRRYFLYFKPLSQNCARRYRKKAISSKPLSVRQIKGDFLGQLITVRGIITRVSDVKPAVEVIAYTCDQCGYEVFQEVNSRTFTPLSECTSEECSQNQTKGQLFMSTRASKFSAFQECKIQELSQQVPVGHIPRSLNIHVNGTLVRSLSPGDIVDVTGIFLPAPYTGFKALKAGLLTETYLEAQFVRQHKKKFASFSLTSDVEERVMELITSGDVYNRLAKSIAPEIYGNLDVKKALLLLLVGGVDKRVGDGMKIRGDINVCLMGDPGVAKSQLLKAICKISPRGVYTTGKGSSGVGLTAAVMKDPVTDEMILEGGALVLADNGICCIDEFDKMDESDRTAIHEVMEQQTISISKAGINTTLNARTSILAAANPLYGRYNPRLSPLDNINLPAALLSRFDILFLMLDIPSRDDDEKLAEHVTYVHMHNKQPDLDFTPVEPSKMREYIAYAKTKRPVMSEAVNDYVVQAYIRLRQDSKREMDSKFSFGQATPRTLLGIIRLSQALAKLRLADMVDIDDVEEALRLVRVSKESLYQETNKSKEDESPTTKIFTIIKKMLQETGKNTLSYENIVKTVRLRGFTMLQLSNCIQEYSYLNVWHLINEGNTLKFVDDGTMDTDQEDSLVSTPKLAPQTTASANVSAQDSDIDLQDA

binding result (Mcm5): binds | binding result (Mcm3): binds | binding result (Mcm7): binds
B1: Dia2 (natural protein, Saccharomyces cerevisiae)
chain: MSSPGNSGVAIDSTVLKAIELGTRLFKSGEYLQAKRIFTNALRVCDSYSQEQIMRIRNAYQLDTARPDNKRLYHPRYIKILDNICACYEKLNDLKSCLDVSQRLLKLEPGNIKCYIRCTRTLIKLKDWKRAYKTCSRGLQLCNNDSNHLRQQKQFIKNNMVQKQDGKRSYIDPLEETKIAKKKKNNNVLESLPKKKIKGSTKKTDLVGNLPIEILPIIFQRFTTKELVTLSLVCNKWRDKILYHLDCFQEFNLAPINFKNFVKFMDFLQQNFTRTYRKYILSQVKVSSRITSEELRITQLLFSKMPKCINIERLILSMPTLTTTQIFKLMVRGGTDFFTRLLELSLMITYRPDKQHELEILQTCPLLKKIELIFVNSLVPIFDGNNSVGRDGSFNVMARHTNMQISTADNDEQGIVEEKVIYSELEKITLICDKKKIKNFPLCRALLRGQFPLLQKLTITGVTFPMNNQDIMNFQWLLNFPDLKELWIEDNDNCELSKFLQLLKFSNVWKNLEKLTFRENKLYPIVNLDEDQPVTNDDEVPSMLFYKENLQNLEKLDLMGTSISGSALTRLCEQEYLDGRKLRSLNIGNCPNIQFPNNHAHTARMILDVNAVLKRLSKLEEINLSHLSSLNDSTMKSFIINVPFLENLKRLDISHNFEITGISIYEFLKKFQMDHDNEAGGQPLAYLNIDGCSQVSHITVNMIRAQNLVTQVDCVYERDVWRKFGINSYSYS
notes: Dia2, F-box protein, S. cerevisiae; model built for F-box (211–247), LRRs (248–716) and C-terminal tail (717–732); N-terminal TPR domain not visible; Subunit of m1 as it stands in the cryo-EM samples; also called Dia2^LRR (its leucine-rich repeat domain); source: purified as part of SCF^Dia2
